Source: a protein production outcome set (Wang et al. 2014)

Assay: label from the status in PepcDB records

Question: Which protein production does the source give for “MRLIERYLFRQLLGPTLLATAALVALALLARSLSEFDVLVEQRQSALVFLKIILLALPQLLGIMMPLALFVAALVALNRLHTEQEIVVCFAGGMSRWRVISPAMRLAVIAALISLISGLWLQPWSARQIRETAFQIKTDVAATLVQPGQFTEPGPGLTVYAQSIDRDNKIQNLFIHQELPNGAASTYSSREAEIATRKGEPVLIMRHGSNQQFSRDGVLQYTSFDEYTFDLSSLFHSDELLHYKIADRYPHELFFPDLTQEWEQRNKDKLLAEGHSRFAGPLYNIALMSMALAAVLGGSFSRMGYGKRIAAVGAAAAIVRIVGFGVQAACEDDPWLNVLQYIVPLAATAWAMSQIFRQRVSPRRKTKPATPAPAFSGAA” here?
Answer: failed

Question: For “MRLITHNMLSCNIKGVTSGFPLRIEAGNVIEKEVDFNPDFIRHMFAKIEWKALVEGARSMGYAELPEESPDAAVLKSDEPFLKKLHHALLELHLEEGALVCPETGRKFPVNKGIPNMLLHEDEV”, which protein production is on record?
Answer: failed

Question: Which protein production does the source give for “MRLNGDVGWLWDWLAAAGLEPRALGEAAVLCALKRRLDAAGCTAAAYPARLAADAEERARLLDAVLVPETWFFREPPAFEALAESAARHRLQRRSVPFHVLSLGCSTGEEPWSIVIALREAGMRKGDFRVEALDISARAIEAARAGIYGGRSFRSPGDGTWRSRYFDELGDGRYRVKDGLRGDVEYRVAHLGDPGWGGGRRYQAVFCRNVLIYLRAELRARIMDQCRDALDPGGLLVLGHADGIGGPDRGFRRHGVAGAFSWIRRDAAEAEPPPARSSRPLAAKAVRRDAPGEAKPSGPDLLSGGRETGRAAPFDEGAVLGTARALADGGNYQAAERLCQSHLASHPHDPEVHALLGIVMSAANRDDEALRYFRQALYLAPSHNESLLHLAALYERRGDEERARHFRNRSAAAEGEP” here?
Answer: failed

Question: With “MRLNQISKFAIVSVVVLVLALLLGGSAKTNLTVEEVNKALEPFFDSLSYILNYYYEADKLDINKLIDHAIDGLVKGTGDDFSYYQDPETYRENQIEMKGEYGGLGIEVTYDAEHGAIKVVAPMYGTPAWRAGLKAGDLIITIDGTPVSKMTYMEAVNNLRGEPGTSVTIEVLRDGEKLTFTIVREKIEIKMVLYSFIETEKGSIGYVRITRFGEKADSDMKNALDKIFEKGVKGLIIDVRDNPGGYLDVALKIVSMFVDKGVILKVRNGFGEEDVYESYGNSYPNVPIVLLVNEGSASASEILTGALKDLGIATVVGRKTFGKGSVQTGFPLSNGGVLFLTTAHYLTPSGKDIHKIGIEPDVLVEESVEEELHAETREQIEVDPEKDPFVKKGLEVLLEKIK” as the sequence, how does the protein production read?
Answer: failed

Question: For “MRLPPRLALSVLAGRGPSCILGSGAATRKDWQERNRRSFSDLYTQPLPDCDFEESSSWTHKSRSEPTRHIACKKSARNLVRDLLEHQNPSHQLILECNPGPGILTGALLKAGARVVAFESEKMFIPHLESLRKNADGELQVVHCDFFKIDPRYQELVRPDVNSHTIFQNLGIKAVPWSAGVPIKVFGILPNKHERRLLWKILFDLYSCESIYRYGRVELNMFISEKEFRVRC”, which protein production is on record?
Answer: failed

Question: Which protein production does the source give for “MRLRVDVIPGEHLAYPDVVLVVDVIRATTTAAAFLEAGAEALYWTPSLESALAFKDEDVVLAGETGGLKPPRFDLGNSPREALSAQVAGRVVVMSTTNGTKAAHAAARTAKHVLLASLYNAHAAARLARELATEEVAILCAGKEGRAGLDDLYTAGVLAEYLGFLGEVEPEDGARVALAVKRAYPDPLEALSLSAAALALKQVGLEADVPFCAQVAKSAAVPVLRGRVGEALIFKRA” here?
Answer: not failed

Question: For “MRLTIERRKASLYLRGNLPPKLPGGEWKQQRMPLGLDATPLGVKQAEAKAHQVGLELQMDRFRWQDHVELPIDASVMSGLVHLAEERYFSERDRTAKTLSTWQRVYVAHYRQIGLDKPFSLELIHRYLSSKRGFPNALQKAIVACRFLCAVANQPLDARPWQGVATRREVVPRELPTQQQIVDWFDHLKNMQLHHQPEFRAGWIWVYAAIATYGLRPHEAWYLDLDSLRKSKGKRVWLKDGKTGPRWVYPCPPQWVQRFDLCHGGPPPINVRNNQELGTRAGQWAKANGVPPLYGLRHSYAVRLIEYEFPVTVAAKMMGHSPQVHTETYHRWLGDREVQSYAEDLLR”, which protein production is on record?
Answer: failed

Question: With “MRLTKLAATIGCVTLSGLALVACSSDSTAGTDAVAVGGTFQFHSPDGKMEIFYDEADRQQLPDIGGDSLMEEGTQINLSDFENQVVILNAWGQWCAPCRSESDDLQIIHEELQAAGNGDTPGGTVLGINVRDYSRDIAQDFVTDNGLDYPSIYDPPFMTAASLGGVPASVIPTTIVLDKQHRPAAVFLREVTSKDVLDVALPLVDEA” as the sequence, how does the protein production read?
Answer: not failed

Question: With “MRLVSLLPSATEIIAALGLLPFLVGRSHECDYPPEVKALPVCTRARLNAQQSSLAIDRVVQELLRAALGIYDLELATLQALKPTHIITQDQCDVCAVTLPDVQRAIADLLEPPPQLISLQPHCLEDIWEDIRRVGLTLGVAPDPLLTVLKERMRACQRRVSDRPRRQVVAIEWIDPPMASGNWIPELIALAGGENMLGTAGKHSPYIEWSTLLAIDPEVILVMPCGFDLERTRQELDQALQTYPQWQQLRALQTGQLYILDGNAYFNRPGPRLVDSLEILVEILHPCPEPKFHGVGWRPYVGPSMAKMSDEG” as the sequence, how does the protein production read?
Answer: failed

Question: For “MRMIDIIEKKRDGHTLTTEEINFFIGGYVKGDIPDYQASSLAMAIYFQDMNDDERAALTMAMVNSGDMIDLSDIKGVKVDKHSTGGVGDTTTLVLAPLVAAVDVPVAKMSGRGLGHTGGTIDKLEAIDGFHVEIDEATFVKLVNENKVAVVGQSGNLTPADKKLYALRDVTGTVNSIPLIASSIMSKKIAAGADAIVLDVKTGSGAFMKTLEDAEALAHAMVRIGNNVGRNTMAIISDMNQPLGRAIGNALELQEAIDTLKGQGPKDLTELVLTLGSQMVVLANKAETLEEARALLIEAINSGAALEKFKTFIKNQGGDETVIDHPERLPQAQYQIEYKAKKSGYVTELVSNDIGVASMMLGAGRLTKEDDIDLAVGIVLNKKIGDKVEEGESLLTIHSNRQDVDDVVKKLDSSITIADHVVSPTLIHKIITE”, which protein production is on record?
Answer: not failed

Question: Which protein production does the source give for “MRMLAHAIKVWNENTGALSHLEIEPLPHQIHLVHHILASGNFNWLIADDVGLGKTIETGMLLHALQQRDLAKRILLITPAGLTKQWQEELYHKFKLEDFEIYGEDFFINEPRQWKMHDCVIGSMDRLKQVDHLESLLQAEPWDLVIFDEGHRLSRRQYGQKLDSSERYDLAKNLRSQTKHMLLLSATPHQGMQDKFVALLELLRPERR” here?
Answer: failed

Question: Which protein production does the source give for “MRMQQDVQDVKLIAVLNLLNQLSNKNSLEEYLNGVIDFLSGWTGCENIGIRVLREAGLAPYVVHRGFDKDFIASESCISVEGDECVCLRVLKQQFKSEDQDHISAAGTYYAPNFYRYVEELREDQLLNFRGLCAHKQFKSLAVIPLLHQGKVVGAIHIADIKDGVFSEEDIHFIETIRPLVAEAIYRHNLEKALESTVLRYEAEEMVIRKLKFEERLASISARFNQQEDFKAAAEESLKDILKLFKAEEVCLYLGGNLKEYVSVREHGQQACGCVIPSDTFAELRGRWKQGEILCQKPALQDEFKEIEYFAQEVFSKDSILTIPLNFKGSLLGVLIIVNISSGGLPFKEILNPLKLVTETFANAVEQGRIQYQLMWSENRYRTIFNHSGSAFLIVDENLKILLSNPQAERLLDLPSAKIDNIAYLTDFLPDTEVGRLKEYNRRRLQRDPQIPRQYEMKYKDSRGNLKDVIVSAEVIPQTTQTVLSIIDITEWKKTEAELQFLNLHDRLTGLYNRVYFEQELRRYETDPGQEVGLIMADVNGLKLINTTFGSEAGDQVLVTTARLLNECFEEHLVARIGGDEFAVLIEKDKNVDLEQACQLFRRNVEKYNKDHDGYPLDISLGYACSGAGGVNMSELLRKADDAMGREKLHSNNSTRNSQVQILSKALECRDFITEGHAERVQNLIISTGQLAGLSEQRLSDLKLFAQFHDIGKVGIPDQILFKKGRLTADEWEIMKQHCEIGYRIAQSTPDIYPIADWILKHHENWDGSGYPLGIAGEEIPIECRILAVADTFDAMTNDRPYRKAQSTQAAIEEILRCAGTQFDPHIVELFVKTV” here?
Answer: failed

Question: With “MRMRRSFPFLAGSALLVVLSAPAVAADGDEGFTIGDSRITESSGLAASRLHPGVYWTHNDSDDGPYLYAVDSRTGKTVATVTLSGVGSPRDVEAISIGPGNEIYVGDIGDNLGGQWDHVWIYELPEPKVLEDQTIRATQYVVKYADGARDAESLMVHPKTGRVYIVDKKEDGGHLYEGPARLSASGTNVFEPLGAVGLWATDAAFSPDGKQLAVRGYFGGIAYTWNGGKIKRQGQLSVPLQRQGESVTYTADGSELMYGSEGADSAVKPGSVPGYSGSGAKSPSGGGGSASAQDGDSDGSHANYKVGALALAVALALGLGVKRLLRRG” as the sequence, how does the protein production read?
Answer: failed

Question: For “MRMSRIQARLLQAIVRPALKTNLLKHAAWRVVLKLRNEFAHAVPPVELETTFDENIRILTSLSDHIESQVFWQGFQEADEGVILLLKRFLPSDGSFIDVGANIGTFTLVAAHRAVRGQVHAFEPSAHHFARLAHNVELNDFKNVALNRKGLYDQPGEAVLFLPSQTGEMNNSGAASLYTSALEETRQVSEAVSLIRLDDYVREKSIGRVDIIKIDIEGAELKALEGARETIARFRPLVFMELDLDNLERAERSPEEVLQYWKSLNYEVSIILLTGETVPVTSPKEFGLHQNLQCRPF”, which protein production is on record?
Answer: failed

Question: For “MRNETLVSIIVPVYNSAQYLRKCIDSILAQSYTEFELLLINDGSEDHSGLICDDYAQSDNRIQVFHQENAGVSAARNLGLEKHTGEHFLFIDSDDYIQERYLEELMKYASCDFVQCSCCSEPVGNDYLFVDGNFEGSDEIKQCLLKYIYPEFTVPFGRLYKSSIQRKNKLFFDTYLYSGEDTLWVSQYLLCVHSLRVSSYIGYIYVHHVGEHLSQKSISYEHLEYTLHKLLISYSDLEKRYDFDLTGVRYSVIIYFFHRYIVYIANRNYTEIRKELEKSCANPLIKGVFYDKKYLLKGKKMKLFNWLVLHDMYSVLALYVKRWKRYLLEHHHHHH”, which protein production is on record?
Answer: not failed

Question: Which protein production does the source give for “MRNKDNQHSRLYYIILTIVIIAICVVVVILFNTLKTNRSHSTDRYADFTELKKDTIKNKDWRIKTKHRKNKDILVTAIHGGGIEPGTTEIARRISNVGKYNFYTFEGLRKSNNDQLHVTSTQFNEPILDKLLKNTKETLSIHGFSGDDPIVYIGGKDKEMSHSITKELRKKDFTVKESPNKIDAKSSDNIANKNESNSGVQLELTTALRKQFFKHYKLDRHTRSDSDKYTKDFYKFANAVQKGIEKVNLEHHHHHH” here?
Answer: not failed

Question: Which protein production does the source give for “MRNMQEKGVSEKEILEELKKYRSLDLKYEDGNIFGSMCSNVLPITRKIVDIFLETNLGDPGLFKGTKLLEEKAVALLGSLLNNKDAYGHIVSGGTEANLMALRCIKNIWREKRRKGLSKNEHPKIIVPITAHFSFEKGREMMDLEYIYAPIKEDYTIDEKFVKDAVEDYDVDGIIGIAGTTELGTIDNIEELSKIAKENNIYIHVDAAFGGLVIPFLDDKYKKKGVNYKFDFSLGVDSITIDPHKMGHCPIPSGGILFKDIGYKRYLDVDAPYLTETRQATILGTRVGFGGACTYAVLRYLGREGQRKIVNECMENTLYLYKKLKENNFKPVIEPILNIVAIEDEDYKEVCKKLRDRGIYVSVCNCVKALRIVVMPHIKREHIDNFIEILNSIKRD” here?
Answer: not failed

Question: For “MRNVIAAVMASTLALSAYSQAAEVVTSVNWLPGDEGGQRGSQSHMFDGISLTEQQRQQLRDLMQRARHDRLPVNVSEMETMHRLVTAENFDENAVRAQAEKMAQEQVARQVEMAKVRNQMYHLLTPEQQAVLNAKHQQRMDQLREVARMQKGSAMMLSSSSNTLQPQ”, which protein production is on record?
Answer: failed

Question: Which protein production does the source give for “MRNYIQGIDHVQVAAPVGCEEEARAFYGETIGMEEIPKPEELKKRGGCWFKCGNQEIHIGVEQNFNPAKRAHPAFYVLKIDEFKQELIKQGIEVIDDHARPDVIRFYVSDPFGNRIEFMENKN” here?
Answer: not failed

Question: For “MRPIPEGYEAVFETVVTPEMTVRFEELGPVHPVYATYWMVKHMELAGRKIILPFLEEGEEGIGSYVEARHLASALPGMRVRVVARHEKTEGNRVYARVEAYNELGDLIGVGRTEQVILPKAKVEALFRRLKERWEAERSPS”, which protein production is on record?
Answer: not failed

Question: Which protein production does the source give for “MRPNLLEALRAMTEGELYAALYQDPLTGVLNRRAFAGAIEEARAVALVDMDSLKWINDNLGHRAGDRALRVLADGLVRSFGADWVFRVSGDEFAVMDGDAEQLAQRLLLLRSSVPGFSFGTGSDMAEADRDMRHDKAEREKSGHRAARGLRPPWVP” here?
Answer: failed
